Reference: patent publication US20070286858A1 (Pfizer, published 2007)
Positions count from the first letter of the chain named. Values belong to the binder of their own block, whether it stands above or below them.

Tests used:
[1] = molecular target: T1, human RAGE-Fc fusion protein (human, UniProt Q15109 23-344); assay: ELISA, coated hRAGE-Fc
T1 construct: also called hRAGE-Fc; huRAGE-Fc; not shown: Fc domain of human IgG
Procedure: (§1) Antibodies were purified from hybridoma supernatants using standard procedures. Purified antibodies were evaluated for binding to soluble forms of RAGE with the use of ELISA. […] After washing and blocking with PBS containing 1% BSA and 0.05% Tween-20, 100 ul of sample (samples were in several forms: diluted immune serum, hybridoma supernatants, or purified antibodies, as indicated) was added and incubated for 1 hour at room temperature. The plates were washed with PBS, pH 7.2 and bound anti-RAGE antibodies were detected with the use of peroxidase-conjugated goat, anti-mouse IgG (H+L) (IgG) (Pierce, Rockford, Ill.) followed by incubation with the substrate TMB (BioFX Laboratories Owings Mills, Md. Laboratories). Absorbance values were determined at 450 nm in a spectrophotometer. The concentrations of monoclonal antibodies were determined with the use of peroxidase-labeled goat, anti-mouse IgG (Fcγ) (Pierce Rockford, Ill.) and a standard curve was generated by a purified, isotype-matched mouse IgG.

[2] = molecular target: T2, human RAGE, full length (human, UniProt Q15109 23-404); assay: FACS, 293 cells infected with human RAGE adenovirus
T2 construct: Expressed on 293 or CHO cells, or endogenous in human lung sections; also called hRAGE; cell-surface hRAGE
Procedure: Human 293 cells were infected with the human and murine RAGE adenovirus. Infected cells were suspended in PBS containing 1% BSA at a density of 4×10⁴ cells/ml. Cells were incubated with 100 ul of sample (diluted immune sera, hybridoma supernatants or purified antibodies) for 30 min at 4° C. After washing, cells were incubated with PE-labeled goat, anti-mouse, IgG, F(ab′)₂ (DAKO Corporation GlostrupDenmark) for 30 min at 4° C. in the dark. Cell-associated fluorescence signals were measured by a FACScan flow cytofluorometer (Becton Dickinson) using 5000 cells per treatment. Propidium iodide was used to identify dead cells, which were excluded from the analysis.

[3] = molecular target: T3, soluble human streptavidin-tagged RAGE (human, UniProt Q15109 23-344); assay: BIACORE capture assay, antibody on CM5 chip, hRAGE-SA 0-100 nM in solution
T3 construct: also called hRAGE-SA; human RAGE-strep
Procedure: The assays were performed by coating antibodies onto a CM5 BIA chip with 5000-7000 RU.

[4] = molecular target: T1, human RAGE-Fc fusion protein; assay: ligand competition ELISA: HMGB1 coated, hRAGE-Fc pre-mixed with mAb, anti-huIgG-HRP; blocked ligand HMGB1
Procedure: Wells were washed and blocked as described above and exposed to 100 μl of pre-incubated mixtures of RAGE-Fc or TrkB-Fc (a non-specific Fc control), at 0.1 μg/ml, plus various forms of the indicated antibody preparation (dilutions of immune sera, hybridoma supernatants or purified antibodies) for 1 hour at room temperature.

[5] = molecular target: T1, human RAGE-Fc fusion protein; assay: BIACORE direct binding, hRAGE-Fc immobilized
Procedure: The binding of selected murine and rat anti-RAGE antibodies to human and murine RAGE and to the V domains of human and murine RAGE was analyzed by BIACORE® direct binding assay. […] Solution of the anti-RAGE antibodies at two concentrations, 50 and 100 nm, were run over the immobilized RAGE-Fc proteins in duplicate. BIACORE™ technology utilizes changes in the refractive index at the surface layer upon binding of the anti-RAGE antibodies to the immobilized RAGE antigen. Binding is detected by surface plasmon resonance (SPR) of laser light refracting from the surface.
The kinetic rate constants (kₐ and kd) and association and dissociation constants (Kₐ and Kd) for the binding of murine and rat anti-RAGE antibodies to human and murine RAGE were determined by BIACORE™ direct binding assay. Analysis of the signal kinetics data for on-rate and off-rate allows the discrimination between non-specific and specific interactions.

[6] = molecular target: T4, human RAGE V-region-Fc fusion protein (human, UniProt Q15109 23-118); assay: direct binding ELISA, coated hRAGE V-region-Fc
T4 construct: also called hRAGE V-domain-Fc; hRAGE-V-Fc (CM); not shown: Fc domain of human IgG
Procedure: as §1

[7] = molecular target: T1, human RAGE-Fc fusion protein; assay: direct binding ELISA, coated hRAGE-Fc
Procedure: as §1

[8] = molecular target: rhNCAM-1 (human, UniProt P13591-3 20-603, limits assumed); assay: direct binding ELISA, receptor coated at 1 µg/ml, antibody at 20 µg/ml
Chain of rhNCAM-1 (P13591 other isoform, or with tags, fused parts or gaps limits assumed): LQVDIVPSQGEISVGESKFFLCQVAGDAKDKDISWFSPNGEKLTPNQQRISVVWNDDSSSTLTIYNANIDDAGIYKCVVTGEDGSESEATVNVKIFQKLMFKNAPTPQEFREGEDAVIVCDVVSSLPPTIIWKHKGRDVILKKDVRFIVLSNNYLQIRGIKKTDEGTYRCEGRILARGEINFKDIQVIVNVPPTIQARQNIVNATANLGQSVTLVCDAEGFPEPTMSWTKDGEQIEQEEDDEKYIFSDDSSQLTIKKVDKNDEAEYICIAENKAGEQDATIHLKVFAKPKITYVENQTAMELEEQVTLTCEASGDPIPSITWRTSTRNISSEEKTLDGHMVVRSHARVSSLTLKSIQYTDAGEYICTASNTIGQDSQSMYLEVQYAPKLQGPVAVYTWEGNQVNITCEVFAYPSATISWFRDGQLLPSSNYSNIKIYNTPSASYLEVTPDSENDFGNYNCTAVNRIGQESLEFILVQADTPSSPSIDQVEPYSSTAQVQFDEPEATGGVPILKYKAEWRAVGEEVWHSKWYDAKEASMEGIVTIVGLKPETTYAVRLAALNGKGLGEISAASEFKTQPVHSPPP
Procedure: (§2) These receptors were chosen because they are cell-surface expressed, like RAGE, and their interaction with ligand is similarly dependent on charge. […] ELISA plates were coated overnight with 1 μg/ml of the listed receptor proteins.

[9] = molecular target: T1, human RAGE-Fc fusion protein; assay: as above
Procedure: as §2

[10] = molecular target: T5, rhVCAM-1 (human, UniProt P19320 25-698); assay: as above
T5 sequence (looked up): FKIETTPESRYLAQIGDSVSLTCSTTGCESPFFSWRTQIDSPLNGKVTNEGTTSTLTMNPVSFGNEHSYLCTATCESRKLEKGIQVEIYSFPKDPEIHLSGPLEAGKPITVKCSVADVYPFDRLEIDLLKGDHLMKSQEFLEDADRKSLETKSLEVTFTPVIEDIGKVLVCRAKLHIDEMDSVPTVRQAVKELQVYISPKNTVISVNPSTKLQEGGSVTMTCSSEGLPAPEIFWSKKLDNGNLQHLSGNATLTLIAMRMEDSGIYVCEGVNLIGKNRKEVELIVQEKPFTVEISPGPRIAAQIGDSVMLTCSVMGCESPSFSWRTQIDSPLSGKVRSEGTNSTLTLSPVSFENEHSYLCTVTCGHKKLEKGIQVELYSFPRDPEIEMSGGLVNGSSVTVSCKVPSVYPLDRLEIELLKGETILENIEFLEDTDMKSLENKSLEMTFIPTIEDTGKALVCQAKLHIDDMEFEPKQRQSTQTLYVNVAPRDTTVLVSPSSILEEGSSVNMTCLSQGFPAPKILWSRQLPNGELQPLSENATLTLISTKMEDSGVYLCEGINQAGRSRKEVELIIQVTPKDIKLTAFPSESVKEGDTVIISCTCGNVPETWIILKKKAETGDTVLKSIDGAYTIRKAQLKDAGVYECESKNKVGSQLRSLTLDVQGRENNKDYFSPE
Procedure: as §2

[11] = molecular target: T6, rhICAM-1-Fc (human, UniProt P05362 28-480); assay: as above
T6 construct: also called rhlCAM-1-Fc; not shown: Fc part not described
T6 sequence (P05362 28-480): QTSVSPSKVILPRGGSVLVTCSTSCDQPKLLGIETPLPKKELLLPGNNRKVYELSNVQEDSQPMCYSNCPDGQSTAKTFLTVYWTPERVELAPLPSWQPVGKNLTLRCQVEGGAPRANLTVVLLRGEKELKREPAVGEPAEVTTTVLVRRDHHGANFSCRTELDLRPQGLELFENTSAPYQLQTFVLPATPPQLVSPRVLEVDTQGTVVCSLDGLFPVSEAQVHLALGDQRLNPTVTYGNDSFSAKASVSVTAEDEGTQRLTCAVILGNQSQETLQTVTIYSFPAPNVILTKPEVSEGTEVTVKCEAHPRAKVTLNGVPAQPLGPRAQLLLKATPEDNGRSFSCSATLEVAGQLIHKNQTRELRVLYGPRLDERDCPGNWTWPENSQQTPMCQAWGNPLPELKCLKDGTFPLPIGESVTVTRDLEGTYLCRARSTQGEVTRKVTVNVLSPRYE
Procedure: as §2

[12] = molecular target: hLox1-Fc (human, UniProt P78380 61-273); assay: as above
Procedure: as §2

[13] = molecular target: rhTLR4 (C-terminal His tag) (human, UniProt O00206 24-631); assay: as above
Chain of rhTLR4 (C-terminal His tag) (O00206 24-631 limits assumed): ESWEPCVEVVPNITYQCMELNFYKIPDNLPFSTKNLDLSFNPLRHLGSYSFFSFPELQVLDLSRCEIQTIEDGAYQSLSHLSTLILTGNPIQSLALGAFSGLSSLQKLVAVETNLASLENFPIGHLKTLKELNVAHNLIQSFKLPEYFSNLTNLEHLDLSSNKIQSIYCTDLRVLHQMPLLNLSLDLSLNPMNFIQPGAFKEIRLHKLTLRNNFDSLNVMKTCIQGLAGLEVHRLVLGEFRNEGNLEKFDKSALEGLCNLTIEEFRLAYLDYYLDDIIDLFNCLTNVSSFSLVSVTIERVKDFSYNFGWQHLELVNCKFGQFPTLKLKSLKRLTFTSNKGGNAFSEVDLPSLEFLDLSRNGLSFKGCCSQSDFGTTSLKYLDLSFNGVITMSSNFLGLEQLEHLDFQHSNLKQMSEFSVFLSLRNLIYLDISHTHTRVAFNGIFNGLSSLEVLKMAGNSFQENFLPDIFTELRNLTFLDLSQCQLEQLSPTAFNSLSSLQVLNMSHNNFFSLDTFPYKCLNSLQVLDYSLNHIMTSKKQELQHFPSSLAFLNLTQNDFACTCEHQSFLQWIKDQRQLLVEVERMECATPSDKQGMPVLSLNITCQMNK
Procedure: as §2

[14] = molecular target: T7, rhB7-H1-Fc (human, UniProt Q9NZQ7 19-239); assay: as above
T7 construct: not shown: Fc part not described
T7 sequence (Q9NZQ7 19-239): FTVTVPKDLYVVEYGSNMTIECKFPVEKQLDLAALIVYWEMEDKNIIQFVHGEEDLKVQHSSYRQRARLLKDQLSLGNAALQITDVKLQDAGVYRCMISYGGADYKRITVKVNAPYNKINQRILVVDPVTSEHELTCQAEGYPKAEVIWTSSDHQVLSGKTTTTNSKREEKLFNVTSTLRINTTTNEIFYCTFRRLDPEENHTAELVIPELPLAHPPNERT
Procedure: as §2

[15] = molecular target: T8, mLox1-Fc (mouse, UniProt Q9EQ09 60-363); assay: as above
T8 construct: also called mLoxl-Fc; not shown: Fc part not described
T8 sequence (Q9EQ09 60-363): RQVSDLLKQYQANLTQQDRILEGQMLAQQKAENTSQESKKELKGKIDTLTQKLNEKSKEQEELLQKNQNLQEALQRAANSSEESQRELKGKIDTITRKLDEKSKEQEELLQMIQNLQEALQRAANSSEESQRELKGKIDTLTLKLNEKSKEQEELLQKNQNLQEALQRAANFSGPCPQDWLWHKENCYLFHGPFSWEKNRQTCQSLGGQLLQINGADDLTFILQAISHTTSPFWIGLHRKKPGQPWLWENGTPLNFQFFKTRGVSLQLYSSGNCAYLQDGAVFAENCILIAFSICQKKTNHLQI
Procedure: as §2

[16] = molecular target: T9, baboon RAGE (baboon (Papio cyanocephalus), UniProt Q15109 23-404 (human entry)); assay: IHC, septic baboon lung, 1 µg/ml
T9 construct: On transfected 293 cells or endogenous in baboon lung sections; also called 293-baboon RAGE; RAGE in baboon lung
T9 chain: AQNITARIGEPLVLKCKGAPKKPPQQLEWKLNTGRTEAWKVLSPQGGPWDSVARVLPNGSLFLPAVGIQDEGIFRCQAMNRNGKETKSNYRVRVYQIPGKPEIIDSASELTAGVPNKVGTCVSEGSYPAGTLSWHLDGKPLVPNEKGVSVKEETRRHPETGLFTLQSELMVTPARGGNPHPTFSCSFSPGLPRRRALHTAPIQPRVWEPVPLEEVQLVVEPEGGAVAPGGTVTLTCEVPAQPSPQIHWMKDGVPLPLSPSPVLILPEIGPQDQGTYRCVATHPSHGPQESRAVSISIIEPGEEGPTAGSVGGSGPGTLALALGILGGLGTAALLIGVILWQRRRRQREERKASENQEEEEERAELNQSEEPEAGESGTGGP
Procedure: Immunohistochemistry for RAGE lung tissues isolated from baboon, cynomolgus monkey, rabbit or Chinese Hamster Ovary cells over-expressing human RAGE or control CHO cells were performed using standard techniques. RAGE antibodies and rat IgG2b isotype control or mouse isotype control were used at […]. […] Following detection with HRP and Alexa Fluor 594, Alexa Fluor 488 or anti-biotin conjugated with FITC, sections were also stained with 4′-6-Diamidino-2-phenylindole (DAPI).
CHO cells stable transfected with an expression vector that expresses DNA encoding hRAGE is used as a positive control.

binding result [1]: binds
binding result [2]: binds
B1: XT-H3 (antibody, mouse IgG1, V domains shown)
VH: QVQLQQPGSELVRPGASVKLSCKTSGYTFTNYWMHWVKQRHGQGLEWIGNLYPGSGRTNYDEKFKSKVTLTEDTSSSTAYMHLSNLTSEDSAVYYCTSLRRGFVYWGQGTLVTVSA
VL: NIVMTQSPEYMSMSFGERVTLTCKASENVGSYVSWYQQKSEQSPKLLIYGASNRYTGVPDRFTGSGSATDFTLTITSVQAEDLADYHCGQTYTYPYTFGGGTKLEIK
notes: also called 1hRAGEP3/18

Ka [3]: 9.48e+08 M⁻¹
Kd [3]: 1.06 nM
koff [3]: 0.00116 s⁻¹
kon [3]: 1.1e+06 M⁻¹ s⁻¹
IC50 (read off the curve) [4]: ~0.2 µg/mL
Ka [5]: 1.14e+10 M⁻¹
Kd [5]: 0.0876 nM
koff [5]: 0.000504 s⁻¹
kon [5]: 5.76e+06 M⁻¹ s⁻¹
EC50 [6]: 0.1 nM
EC50 [7]: 0.09 nM
B2: XT-H2 (antibody, mouse IgG1, V domains shown)
VH: QVQLQQSGAELAKPGASVKMSCKASGYTFTTYWMHWVKQRPGQGLYWIGYINPSTGYTEYNQKFKDKATLTADKSSSTAYMQLSSLTSEDSAVYYCARWAGYTIDYWGQGTSVTVSS
VL: DVVLTQTPLSLPVNIGDQASISCKSTKSLLNSDGFTYLDWYLQKPGQSPQLLIYLVSDRFSGVPDRFSGSGSGTDFTLTISRVEAEDLGVYYCFQSNSLPLTFGSGTKLEIK
notes: also called 1hRAGEP3/16; murine anti-huRAGE monoclonal antibody XT-H2

OD450 [8]: 0.004
OD450 [9]: 3.81
OD450 [10]: 0.01
OD450 [11]: 0.007
OD450 [12]: 0.007
OD450 [13]: 0.001
OD450 [14]: 0.01
OD450 [15]: 0.016
B3: XT-M4-hVH-V2.0-2m/hVL-V2.10 (antibody, V domains shown)
VH: EVQLVESGGGLVQPGGSLRLSCAASGFTFNNYWMTWVRQAPGKGLEWVASIDNSGDNTYYPDSVKDRFTISRDNAKNSLYLQMNSLRAEDTAVYYCARGGDITTGFDYWGQGTLVTVSS
VL: DIQMTQSPSSLSASVGDRVTITCRASQDVGIYVNWFQQKPGKAPKRLIYRATNLADGVPSRFSGSGSGTDFTLTISSLQPEDFATYYCLEFDEHPLTFGGGTKVEIK
notes: '2m' is not explained; also called XT-M4-hVH-2.0-2m/hVL-V2.10

OD450 [8]: 0.011
OD450 [9]: 3.83
OD450 [10]: 0.012
OD450 [11]: 0.004
OD450 [12]: 0.022
OD450 [13]: 0.003
OD450 [14]: 0.009
OD450 [15]: 0.01
B4: XT-M4-hVH-V2.0-2m/hVL-V2.11 (antibody, V domains shown)
VH: B3 VH
VL: B3 VL with K45R, G66R
notes: '2m' is not explained

binding result [1]: binds
binding result [2]: binds
B5: XT-H7 (antibody, mouse IgG1, V domains shown)
VH: QVQLKESGPGLVAPSQSLSITCTVSGFSLTNYGVHWVRQPPGKGLEWLGVMWAGGSTTYNSALMSRLSISKDNSKSQVFLKMNSLQTDDTAMYYCARYGNYAMDYWGQGTSVTVSS
VL: DIQMTQSPSSLSASLGGKVTITCKASQDIYKYIAWYQHKPGKGPRLLIHYTSTLQPGIPSRFSGSGSGRDYSFSISNLEPEDIATYYCLRYDNLYTFGGGTKLEIK
notes: also called 1hRAGEP3/66

Ka [3]: 3.69e+08 M⁻¹
Kd [3]: 2.71 nM
koff [3]: 0.00451 s⁻¹
kon [3]: 1.66e+06 M⁻¹ s⁻¹
binding result [16]: binds
B6: XT-H5 (antibody, mouse IgG1, V domains shown)
VH: EVLLQQSGPELVKPGASVKISCKASGYTFTDYNMDWVKQSHGKSLEWIGDINPDNGGTIYKQKFKGKATLTVDKSSSTAYMELRSLTSEDTAVYYCTTHDHYYYALDYWGQGTSVTVSS
VL: not shown
notes: also called 1hRAGEP3/55
